Measured values published in US20160216269A1 (BIOCARE MEDICAL, published 2016).

Biological target: T1, SOX10 epitope peptide QGGTAAIQAHYKSAH (human)
T1 construct: One of the overlapping peptides of about 15 amino acids covering human SOX10 147-253
T1 peptide: QGGTAAIQAHYKSAH
Assay: epitope mapping with overlapping SOX10 peptides, direct ELISA and dot blot
Excerpt: In order to determine the peptide sequence of SOX10 that is recognized by anti-SOX10 antibodies such as BC34, epitope mapping may be conducted perhaps using two assays: direct ELISA and even dot blot. In an ELISA assay, the sensitivity and specificity of the anti-SOX10 [BC34] antibody may be determined by measuring the antibody titer at about 1:500 and about 1:1000. Overlapping peptides at a length of about 15 amino acids each, covering the human SOX10 protein sequence from perhaps 147 to 253 amino acids, may be used to determine a sequence of BC34 binding.

B1: mouse monoclonal anti-SOX10 antibody BC34 (antibody, V domains shown)
VH: QVTLKESGPGILQPSQTLSLTCSFSGFSLSTFLIGVGWIRQPSGKGLEWLAHIWWNDNKYYNTALKNRLTISKDTSNNQVFLKIASVDTTDTATYYCVRMAGIGGTDAMDYWGQGTSVTVSS
VL: DIVLTQSPASLAVSLGQRATISCRASEIVEYYGTNLLQWYQQKPGQPPKLLIYAASNVESGVPARFSGSGSGTDFSLNIHPVEEDDIAIYFCQQSRKVPWTFGGGTKLEIK
notes: also called anti-SOX10 antibody [clone BC34]; SOX10 [BC34]
B1: binds.
